Measurements reported in patent US20250320312A1 (OXITOPE PHARMA B V, published 2025).
Substitutions are numbered along the chain they refer to. Values belong to the binder of their own block, whether it stands above or below them.

What was measured:
Assay in all cases: scFv ELISA
BSA = BSA (UniProt P02769)
[1] = molecular target: Peptide 1: Biotin-…-[Tyr(PC)]-acid
[2] = molecular target: Peptide 5: Biotin-…-[Tyr(PC)]-acid
[3] = molecular target: T1, Peptide 4: Biotin-AGGGGSGGGGSGGGGSAAA-Tyr-acid (N-terminal biotin; C-terminal acid)
T1 construct: control peptide without PC
T1 peptide: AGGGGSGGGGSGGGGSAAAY
How it was run: (§1)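 Bound scFv was read as OD450 after HRP–anti-V5 detection, TMB development and HCl stop. PPE with BSA was incubated 1 h at RT on BSA-blocked wells coated overnight at 4° C. with peptide, or on streptavidin wells loaded 1 h with biotinylated PC-peptides at 1 μg/mL.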

[4] = molecular target: T2, Peptide 8: Biotin-AEAAAKEAAAKEAAAKEAAAKAAA-Tyr-acid (N-terminal biotin; C-terminal acid)
T2 construct: control peptide without PC
T2 peptide: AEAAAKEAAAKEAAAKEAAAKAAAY
How it was run: as §1

[5] = molecular target: T3, Peptide 4: Biotin-AGGGGSGGGGSGGGGSAAA-Tyr-acid (N-terminal biotin; C-terminal acid)
T3 construct: Control peptide without PC
T3 peptide: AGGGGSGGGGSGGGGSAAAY
How it was run: as §1

[6] = molecular target: T4, Peptide 8: Biotin-AEAAAKEAAAKEAAAKEAAAKAAA-Tyr-acid (N-terminal biotin; C-terminal acid)
T4 construct: Control peptide without PC
T4 peptide: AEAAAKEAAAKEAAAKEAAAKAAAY
How it was run: as §1

Sequence of BSA (P02769 25-607 limits assumed): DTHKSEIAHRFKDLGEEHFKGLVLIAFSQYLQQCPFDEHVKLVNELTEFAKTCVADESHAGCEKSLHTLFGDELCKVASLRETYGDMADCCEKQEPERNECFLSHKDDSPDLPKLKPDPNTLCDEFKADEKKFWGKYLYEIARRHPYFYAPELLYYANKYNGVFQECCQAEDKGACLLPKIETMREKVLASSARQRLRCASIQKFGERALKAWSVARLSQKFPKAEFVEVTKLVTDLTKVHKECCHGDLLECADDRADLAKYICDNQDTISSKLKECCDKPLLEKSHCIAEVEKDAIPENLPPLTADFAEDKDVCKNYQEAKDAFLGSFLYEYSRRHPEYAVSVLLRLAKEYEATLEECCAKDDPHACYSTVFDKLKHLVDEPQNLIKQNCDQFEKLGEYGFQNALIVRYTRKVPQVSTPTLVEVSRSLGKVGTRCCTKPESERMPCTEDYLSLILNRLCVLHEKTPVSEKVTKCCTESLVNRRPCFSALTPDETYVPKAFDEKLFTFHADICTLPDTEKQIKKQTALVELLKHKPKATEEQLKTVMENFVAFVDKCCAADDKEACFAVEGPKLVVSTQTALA

OD450 (BSA): 0.12 OD450 | OD450 [1]: 0.75 OD450 | OD450 [2]: 0.95 OD450 | OD450 [3]: 0.06 OD450 | OD450 [4]: 0.05 OD450
B1: PcOxP_DB03_D07 (scFv, V domains shown)
VH: EVQLLESGGGLVQPGGSLRLSCAASGFTFSDVYMEWVRQAPGKGLEWVAASRNKANDYTTEYADSVKGRFTISRDNSKNTLYLQMNSLRAEDTAVYYCARDYYGSSYWYFDVWGQGTLVTVSS
VL: DIQMTQSPSSLSASVGDRVTITCTASESLYSSKHKVHYLAWYQQKPGKAPKLLIYGASNRYSGVPSRFSGSGSGTDFTLTISSLQPEDFATYYCAQFYKYPLTFGGGTKVEIK
notes: scFv in periplasmic extract

OD450 (BSA): 0.07 OD450 | OD450 [1]: 1.2 OD450 | OD450 [2]: 1.67 OD450 | OD450 [5]: 0.05 OD450 | OD450 [6]: 0.05 OD450
B2: PcOxP_DB04_G05 (scFv, V domains shown)
VH: B1 VH with V32F, Y102F
VL: DIVMTQSPDSLAVSLGERATINCTASESLYSSKHKVHYLAWYQQKPGQPPKLLIYGASNRYIGVPDRFSGSGSGTDFTLTISSLQAEDVAVYYCAQFYSYPLTFGGGTKVEIK
notes: scFv in periplasmic extract

OD450 (BSA): 0.09 OD450 | OD450 [1]: 0.56 OD450 | OD450 [2]: 0.85 OD450 | OD450 [3]: 0.06 OD450 | OD450 [4]: 0.06 OD450
B3: PcOxP_DB01_H08 (scFv, V domains shown)
VH: B1 VH with F29H, V32F
VL: DIQMTQSPSSLSASVGDRVTITCRASESISSSKHKHYLAWYQQKPGKAPKLLIYGASNRYIGVPSRFSGSGSGTDFTLTISSLQPEDFATYYCAQFYVYPLTFGGGTKVEIK
notes: scFv in periplasmic extract

OD450 (BSA): 0.06 OD450 | OD450 [1]: 0.16 OD450 | OD450 [2]: 0.45 OD450 | OD450 [5]: 0.04 OD450 | OD450 [6]: 0.04 OD450
B4: PcOxP_DB02_F06 (scFv, V domains shown)
VH: B1 VH with V32E, Y58F, Y102F
VL: B2 VL with L29I
notes: scFv in periplasmic extract

OD450 (BSA): 0.08 OD450 | OD450 [1]: 0.5 OD450 | OD450 [2]: 0.66 OD450 | OD450 [3]: 0.06 OD450 | OD450 [4]: 0.05 OD450
B5: PcOxP_DB03_D11 (scFv, V domains shown)
VH: B1 VH with V32F, S105H
VL: B1 VL with N59S, S62I, K99E
notes: scFv in periplasmic extract

OD450 (BSA): 0.09 OD450 | OD450 [1]: 0.65 OD450 | OD450 [2]: 0.85 OD450 | OD450 [3]: 0.05 OD450 | OD450 [4]: 0.07 OD450
B6: PcOxP_DB03_F10 (scFv, V domains shown)
VH: B1 VH with V32H, K54S, A55G, D57S
VL: B1 VL with K35S, Y61F, S62I, K99S
notes: scFv in periplasmic extract

OD450 (BSA): 0.07 OD450 | OD450 [1]: 0.56 OD450 | OD450 [2]: 0.88 OD450 | OD450 [5]: 0.04 OD450 | OD450 [6]: 0.05 OD450
B7: PcOxP_DB02_H07 (scFv, V domains shown)
VH: B1 VH with D31S, V32Y
VL: B2 VL with I62N, S99T
notes: scFv in periplasmic extract

OD450 (BSA): 0.08 OD450 | OD450 [1]: 1.57 OD450 | OD450 [2]: 1.8 OD450 | OD450 [3]: 0.05 OD450 | OD450 [4]: 0.08 OD450
B8: PcOxP_DB03_G03 (scFv, V domains shown)
VH: B1 VH with F29S, V32F
VL: B1 VL with E27Q, L29I, Y30S, R60H, S62I, K99S
notes: scFv in periplasmic extract

OD450 (BSA): 0.11 OD450 | OD450 [1]: 1.49 OD450 | OD450 [2]: 1.8 OD450 | OD450 [5]: 0.05 OD450 | OD450 [6]: 0.07 OD450
B9: PcOxP_DB02_G05 (scFv, V domains shown)
VH: B1 VH with V32F, Y107H
VL: B2 VL with V36L, A95G
notes: scFv in periplasmic extract

OD450 (BSA): 0.06 OD450 | OD450 [1]: 1.01 OD450 | OD450 [2]: 1.13 OD450 | OD450 [5]: 0.04 OD450 | OD450 [6]: 0.04 OD450
B10: PcOxP_DB02_G02 (scFv, V domains shown)
VH: B1 VH with T28G, V32F
VL: B2 VL with I62S
notes: scFv in periplasmic extract

OD450 (BSA): 0.09 OD450 | OD450 [1]: 0.2 OD450 | OD450 [2]: 0.44 OD450 | OD450 [5]: 0.04 OD450 | OD450 [6]: 0.04 OD450
B11: PcOxP_DB02_H05 (scFv, V domains shown)
VH: B1 VH with V32F, V112P
VL: B2 VL with I62L
notes: scFv in periplasmic extract

OD450 (BSA): 0.1 OD450 | OD450 [1]: 2.48 OD450 | OD450 [2]: 2.01 OD450 | OD450 [3]: 0.06 OD450 | OD450 [4]: 0.06 OD450
B12: PcOxP_DB03_G06 (scFv, V domains shown)
VH: B1 VH with V32F
VL: B1 VL with S62I, K99E
notes: scFv in periplasmic extract

OD450 (BSA): 0.09 OD450 | OD450 [1]: 2.5 OD450 | OD450 [2]: 2.11 OD450 | OD450 [3]: 0.06 OD450 | OD450 [4]: 0.06 OD450
B13: PcOxP_DB03_E01 (scFv, V domains shown)
VH: B1 VH with V32Y, T60V
VL: B1 VL with A57T, S62I, K99E
notes: scFv in periplasmic extract

OD450 (BSA): 0.06 OD450 | OD450 [1]: 0.22 OD450 | OD450 [2]: 0.2 OD450 | OD450 [5]: 0.05 OD450 | OD450 [6]: 0.04 OD450
B14: PcOxP_DB02_H04 (scFv, V domains shown)
VH: B1 VH with V32E
VL: B2 VL with H37V, S99F
notes: scFv in periplasmic extract
